This is an account of results in patent publication US20190241895.

Usually Kd stands for the equilibrium constant for the complex coming apart. The low end stands for tighter binding, the high end for weaker binding.

The series has as its system secretory immunoglobulin A (sIgA) (Homo sapiens). Nature of the series: SPR. (SPR reads the build-up and loss of mass on a sensor chip optically.)
[1] abbreviates: KS9 (adenine-residue-modified T) at the T after GCAATCTCCCTAATC, 3' poly(dA)20 added for SPR, SPR buffer 1 mM MgCl2 pH 7.4.
[2] abbreviates: NG7 (guanine-residue-modified T) at underlined T i.e. T after GCAATCTCCCTAATC, 3' poly(dA)20 added for SPR, SPR buffer 1 mM MgCl2 pH 7.4.
Where [3] appears, read: KS9 (adenine-residue-modified T) at T after the 5' primer region GGTTTGGACGCAATCTCCCTAATC, 3' poly(dA)20 added for SPR, SPR buffer 1 mM MgCl2 pH 7.4.
Where [4] appears, read: MK4 (adenine-residue-modified dA) at A after the 5' primer region GGTTTGGACGCAATCTCCCTAATC, 3' poly(dT)20 added for SPR, SPR buffer 1 mM MgCl2 pH 7.4.
[5] abbreviates: NG7 (guanine-residue-modified T) at T after the 5' primer region GGTTTGGACGCAATCTCCCTAATC, 3' poly(dA)20 added for SPR, SPR buffer 1 mM MgCl2 pH 7.4.

Take “GCAATCTCCCTAATCAAAGATATGCTAAGATAGATAGTTTGGCTTG [KS9 aptamer SEQ 19]”: under setting [1], the equilibrium dissociation constant (Kd) amounted to 8 nM.

“GCAATCTCCCTAATCGTATATCAAGCAGATGTGTTCACTTGGGGAG [KS9 aptamer SEQ 17]” had a dissociation constant (Kd) under setting [1] of 12.9 nM.

Turning to “GCAATCTCCCTAATCTGCTGATGTTTGTATTTCAAATTAGC [NG7 aptamer SEQ 15]”, the Kd under setting [2] amounted to 2.59 nM.

Take “GCAATCTCCCTAATCTGCTGATGTTTGTATTTCAAATTAGCCGCAG [NG7 aptamer SEQ 14]”: under setting [2], the dissociation constant (Kd) turned out to be 10 nM.

As for “GCAATCTCCCTAATCTTTATACGTATGGACTTAGGCTTTGTTATAGAAAC [KS9 aptamer SEQ 21]”, under setting [1], the dissociation constant Kd was 2.1 nM.

Under setting [3], “GGTTTGGACGCAATCTCCCTAATCAAAGATATGCTAAGATAGATAGTTTGGCTTGAAACTACAATGGGCGGGCTTATC [KS9 aptamer SEQ 9]” yielded a Kd of 4.8 nM.

Under setting [4], “GGTTTGGACGCAATCTCCCTAATCAAGCCACGGAGAGTCCGAGGTGACCATTAAGCAGGAAACTACAATGGGCGGGCTTA [MK4 aptamer SEQ 3]” displayed a Kd of 7.6 nM. This lies in the single-digit nanomolar range.

For the sequence “GGTTTGGACGCAATCTCCCTAATCACCTGTACTGGTTATTATGCCTGCCAACATGAAACTACAATGGGCGGGCTTATC [KS9 aptamer SEQ 10]”, the Kd under setting [3] came out at 30.2 nM.

With “GGTTTGGACGCAATCTCCCTAATCAGACAATATTAGAGTGTTACCACCTGTGATGAAACTACAATGGGCGGGCTTATC [NG7 aptamer SEQ 7]”, under setting [5], the Kd turned out to be 37.7 nM.

With “GGTTTGGACGCAATCTCCCTAATCAGATGATATCGAGATGCGAAGCGACCGCATGAAACTACAATGGGCGGGCTTATC [MK4 aptamer SEQ 2]”, under setting [4], the dissociation constant Kd is 7.6 nM. That is a single-digit nanomolar value.

Regarding “GGTTTGGACGCAATCTCCCTAATCCTATCTGTTTTATCAATTGTAGCAAGTTATGAAACTACAATGGGCGGGCTTATC [KS9 aptamer SEQ 12]”, the Kd under setting [3] turned out to be 9 nM.

“GGTTTGGACGCAATCTCCCTAATCGATCTAGATGGTCTCGGGTATGGCTAGATAGAAACTACAATGGGCGGGCTTATC [MK4 aptamer SEQ 4]”: the dissociation constant (Kd) under setting [4] came to 17.4 nM.

With “GGTTTGGACGCAATCTCCCTAATCGTATATCAAGCAGATGTGTTCACTTGGGGAGAAACTACAATGGGCGGGCTTATC [KS9 aptamer SEQ 8]”, the Kd under setting [3] worked out at 10 nM.

Under setting [5], “GGTTTGGACGCAATCTCCCTAATCTAAATAGATTTCACAGTGGATCCTTCAGAGGAAACTACAATGGGCGGGCTTATC [NG7 aptamer SEQ 6]” registered a dissociation constant (Kd) of 11.6 nM. This counts as double-digit nanomolar.

Where the note is “MK4 (adenine-residue-modified dA) at A after the 5' primer region GGTTTGGACGCAATCTCCCTAATC, 3' poly(dT)20 added for SPR, 40 mM HEPES, 125 mM NaCl, 5 mM KCl, 1 mM MgCl2, 0.01% Tween 20, pH 7.4”, “GGTTTGGACGCAATCTCCCTAATCTACTACGATATCCAGATGGGAAGTGACCGTGAAACTACAATGGGCGGGCTTATC [MK4 aptamer SEQ 1]” gave a Kd of 8.6 nM.

For “GGTTTGGACGCAATCTCCCTAATCTGCTGATGTTTGTATTTCAAATTAGCCGCAGAAACTACAATGGGCGGGCTTATC [NG7 aptamer SEQ 5]”, under setting [5], the Kd is 11.8 nM.

In turn, “GGTTTGGACGCAATCTCCCTAATCTTTATACGTATGGACTTAGGCTTTGTTATAGAAACTACAATGGGCGGGCTTATC [KS9 aptamer SEQ 11]” displayed a Kd under setting [3] of 1.3 nM.
